According to patent US20190040131A1 (published 2019):

B1: AB-14.1 (antibody, V domains shown)
VH: QVQLVQSGAEVKKPGASVKVSCKASGATFTDYNFHWVRQAPGQGLEWIGFIYPSNGITGYAQDFQGRVTMTVDTSTSTVYMELSSLRSEDTAVYYCARSDVDYFDYWGQGTLVTVSS
VL: DIQMTQSPSSLSASVGDRVTITCRASQSVSTSTYSYMHWYQQKPGKAPKLLIKYASNLESGVPSRFSGSGSGTDFTLTISSLQPEDFATYYCQHSWEIPLTFGQGTKLEIK
B2: AB-63.5 (antibody, V domains shown)
VH: QVQLVQSGAEVKKPGASVKVSCKASGYTFTDYNNHWVRQAPGQGLEWIGFIYPSNGITGYAQKFQGRVTMTVDTSTSTVYMELSSLRSEDTAVYYCARSDVDYFDYWGQGTLVTVSS
VL: DIVLTQSPDSLAVSLGERATINCRASQSVSTSTYSYMHWYQQKPGQPPKLLIKYASNLESGVPDRFSGSGSGTDFTLTISSLQAEDVAVYYCQHSWEIPLTFGQGTKLEIK
B3: AB-63.15 (antibody, V domains shown)
VH: QVQLVQSGAEVKKPGASVKVSCKASGYTFTDYNYHWVRQAPGQGLEWIGFIYPSNGITGYAQKFQGRVTMTVDTSTSTVYMELSSLRSEDTAVYYCARSDVDYFDLWGQGTLVTVSS
VL: DIVLTQSPDSLAVSLGERATINCRASQDVSTSTYSYMHWYQQKPGQPPKLLIKYASNVESGVPDRFSGSGSGTDFTLTISSLQAEDVAVYYCQHSWEIPLTFGQGTKLEIE
B4: AB-63.13 (antibody, V domains shown)
VH: QVQLVQSGAEVKKPGASVKVSCKASGYTFTDYNLHWVRQAPGQGLEWIGFIYPSNGIRGYAQKFQGRVTMTVDTSTSTVYMELSSLRSEDTAVYYCARSDVDYFDYWGQGTLVTVSS
VL: DIVLTQSPDSLAVSLGERATINCRASQSVSTSTYSYMHWYQQKPGQPPKLLIKYASNLESGVPDRFSGSGSGTDFTLTISSLQAEDVAVYYCQHSEEIPLTFGQGTKLEIK
B5: AB-63.8 (antibody, V domains shown)
VH: QVQLVQSGAEVKKPGSSVKVSCKASGVTFTDYNYHWVRQAPGQGLEWIGFIYPSNGITGYAQKFQDRVTMTVDTSTSTVYMELSSLRSEDTAVYYCARSTVDYFDYWGQGTLVTVSS
VL: DIVLTQSPDSLAVSLGERATINCRASQDVSTSTYSYMHWYQQKPGQPPKLLIKYASNLESGVPDRFSGSGSGTDFTLTISSLQAEDVAVYYCQHSWEIPLTFGQGTKLEIK
B6: AB-63.7 (antibody, V domains shown)
VH: QVQLVQSGAEVKKPGASVKVSCKASGYTFTDYNLHWVRQAPGQGLEWIGFIYPSNGITGYAQKFQGRVTMTVDTSTSTVYMELSSLRSEDTAVYYCARSTVDYFDYWGQGTLVTVSS
VL: DIVLTQSPDSLAVSLGERATINCRASQDVSTSTYSYMHWYQQKPGQPPKLLIKYAFNLESGVPDRFSGSGSGTDFTLTISSLQAEDVAVYYCQHSWEIPLEFGQGTKLEIK
B7: AB-63.18 (antibody, V domains shown)
VH: QVQLVQSGAEVKKPGSSVKVSCKASGYTHTDYNLHWVRQAPGQGLEWIGFIYPSNGITGYAQKFQGRVTMTVDTSTSTVYMELSSLRSEDTAVYYCARSDVDYFDYWGQGTLVTVSS
VL: DIVLTQSPDSLAVSLGERATINCRASQSVSTSTYSYMHWYQQKPGQPPKLLIKYESNLESGVPDRFSGSGSGTDFTLTISSLQAEDVAVYYCQHSWEIPLTFGQGTKLEIK
B8: AB-63.6 (antibody, V domains shown)
VH: QVQLVQSGAEVKKPGASVKVSCKASGYTFTDYNLHWVRQAPGQGLEWIGFIYPSNGITGYAQKFQGRVTMTVDTSTSTVYMELSSLRSEDTAVYYCARSTVDYFDYWGQGTLVTVSS
VL: DIVLTQSPDSLAVSLGERATINCRASQDVSTSTYSYMHWYQQKPGQPPKLLIKYASNLESGVPDRFSGSGSGTDFTLTISSLQAEDVAVYYCQHSWEIPLTFGQGTKLEIK
B9: AB-63.9 (antibody, V domains shown)
VH: QVQLVQSGAEVKKPGASVKVSCKASGYAFTDYNLHWVRQAPGQGLEWIGFIYPSNGITGYAQKFQGRVTMTVDTSTSTVYMELSSLRSEDTAVYYCARSDVDYFDYWGQGTLVTVSS
VL: DIVLTQSPDSLAVSLGERATINCRASQDVSTSTYSYMHWYQQKPGQPPKLLIKYASYLESGVPDRFSGSGSGTDFTLTISSLQAEDVAVYYCEHSWEIPLTFGQGTKLEIK
B10: AB-63.4 (antibody, V domains shown)
VH: QVQLVQSGAEVKKPGASVKVSCKASGYTFTDYNYHWVRQAPGQGLEWIGFIYPSNGITGYAQKFQGRVTMTVDTSTSTVYMELSSLRSEDTAVYYCARSTVDYFDYWGQGTLVTVSS
VL: DIVLTQSPDSLAVSLGERATINCRASQSVSTSTYSYMHWYQQKPGQPPKLLIKYASNLESGVPDRFSGSGSGTDFTLTISSLQAEDVAVYYCQHSWEIPLTFGQGTKLEIK
B11: AB-63.10 (antibody, V domains shown)
VH: QVQLVQSGAEVKKPGASVKVSCKASGYTETDYNLHWVRQAPGQGLEWIGFIYPSNGITGYAQKFQGRVTMTVDTSTSTVYMELSSLRSEDTAVYYCARSDVDYFDYWGQGTLVTVSS
VL: DIVLTQSPDSLAVSLGERATINCRASQDVSTSTYSYMHWYQQKPGQPPKLLIKYASNLESGVPDRFSGSGSGTDFTLTISSLQAEDVAVYYCQHSWELPLTFGQGTKLEIK
B12: AB-63.12 (antibody, V domains shown)
VH: QVQLVQSGAEVKKPGASVKVSCKASGYTFTDYNFHWVRQAPGQGLEWIGFIYPSNGITGYAQKFTGRVTMTVDTSTSTVYMELSSLRSEDTAVYYCARSTVDYFDDWGQGTLVTVSS
VL: DIVLTQSPDSLAVSLGERATINCRASQDVSTSTYSYMHWYQQKPGQPPKLLIKYASNVESGVPDRFSGSGSGTDFTLTISSLQAEDVAVYYCQHSWAIPLTFGQGTKLEIK
B13: AB-63.14 (antibody, V domains shown)
VH: QVQLVQSGAEVKKPGSSVKVSCKASGYTFTDYNLHWVRQAPGQGLEWIGFIYPSNGITGYAQKFQGRVTMTVDTSTSTVYMELSSLRSEDTAVYYCARSDVDYFDYWGQGTLVTVSS
VL: DIVLTQSPDSLAVSLGERATIDCKASQDVSTSTYSYMHWYQQKPGQPPKLLIKYASNLESGVPDRFSGSGSGTDFTLTISSLQAEDVAVYYCQHSWEIPLTFGQGTKLEIK
B14: AB-63.11 (antibody, V domains shown)
VH: QVQLVQSGAEVKKPGASVKVSCKASGYTFTDYNFHWVRQAPGQGLEWIGFIYPANGITGYAQKDQGRVTMTVDTSTSTVYMELSSLRSEDTAVYYCARSDVDYFDYWGQGTLVTVSS
VL: DIVLTQSPDSLAVSLGERATINCRASQDVSTSTYSYMHWYQQKPGQPPKLLIKYASNLESGVPDRFSGSGSGTDFTLTISSLQAEDVAVYYCQHSWEIPLTFGQGTKLEIK

Each binder was assayed against T1, human CD33 (human, UniProt P20138 18-259, limits assumed) (assay: BLI (ForteBio), CD33 on tip, Fab 100 nM).
T1 construct: Human CD33 immobilized on the BLI sensor tip or the BIAcore C1 chip; also called Siglec-3
T1 sequence (P20138 18-259 limits assumed): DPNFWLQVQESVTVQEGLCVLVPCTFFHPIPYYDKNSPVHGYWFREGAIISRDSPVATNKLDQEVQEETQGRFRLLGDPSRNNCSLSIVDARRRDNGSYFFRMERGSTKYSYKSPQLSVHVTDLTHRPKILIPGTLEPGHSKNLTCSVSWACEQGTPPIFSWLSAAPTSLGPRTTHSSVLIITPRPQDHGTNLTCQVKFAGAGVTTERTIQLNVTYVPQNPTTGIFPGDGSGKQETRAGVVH
Description: (§1) The affinities (KD) of the humanized antibodies for human CD33 were measured for each antibody by BioLayer Interferometry in a ForteBio assay according to standard techniques (Estep et al. (2013) MAbs 5(2): 270-8). […] The assay was carried out at room temperature.
(§2) The affinities of AB-H14 and its affinity-matured variants (Table 15) and AB-H63 and its affinity-matured variants (Table 16), for human CD33 were measured by Fortebio assay according to the method described in Example 1 above.
A Kd of 0.299 nM and a koff of 0.0002 s⁻¹ were found for B1 in this work.

The binders below were run against T1, human CD33 (assay: BLI (ForteBio), Fab; column looks row-shifted against KD).
Description: as §1, §2
A koff of 0.00155 s⁻¹ and a kon of 776000 M⁻¹ s⁻¹ were found for B2 in this work.
A koff of 0.0002 s⁻¹ and a kon of 723000 M⁻¹ s⁻¹ were found for B3 in this work.
A koff of 0.000336 s⁻¹ and a kon of 721000 M⁻¹ s⁻¹ were found for B4 in this work.
A koff of 0.000524 s⁻¹ and a kon of 847000 M⁻¹ s⁻¹ were found for B5 in this work.
A koff of 0.000581 s⁻¹ and a kon of 809000 M⁻¹ s⁻¹ were found for B6 in this work.
A koff of 0.000204 s⁻¹ and a kon of 903000 M⁻¹ s⁻¹ were found for B7 in this work.
A koff of 0.00176 s⁻¹ and a kon of 679000 M⁻¹ s⁻¹ were found for B8 in this work.
A kon of 658000 M⁻¹ s⁻¹ was found for B9 in this work.
A koff of 0.00112 s⁻¹ and a kon of 602000 M⁻¹ s⁻¹ were found for B10 in this work.
A koff of 0.000546 s⁻¹ and a kon of 596000 M⁻¹ s⁻¹ were found for B11 in this work.
A kon of 738000 M⁻¹ s⁻¹ was found for B12 in this work.
A koff of 0.000322 s⁻¹ and a kon of 839000 M⁻¹ s⁻¹ were found for B13 in this work.
A koff of 0.0002 s⁻¹ and a kon of 913000 M⁻¹ s⁻¹ were found for B14 in this work.
